# From US20220112288A1 (published 2022)
# B1: 75110_06G04A (antibody, V domains shown)
# VH: QVQLLESGPGLVKPSETLSLTCTVSGGSISSYYWSWIRQPAGKGLEWIGRIYISGSTNYNPSLKSRVTMSIDTSENQFSLNLSSVTAADTAVYYCARELERPYYYGMDVWGQGTTVTVSS
# VL: DIQMTQSPSSLSASVGDRVTITCQASQDISNYLNWYQQKPGKAPKLLIYNASTLETGVPSRFSGSGSGTDFTFTISSLQPEDIATYYCQQYDNLPLTFGGGTKVEFK
# notes: Tested as antibody purified from AlivaMab Mouse hybridoma supernatant (human variable domains, kappa; mouse Fc, captured on anti-mouse IgG Fc sensors); also called ADS75110 purified AMM Ab
# B2: 75110_06K03A (antibody, V domains shown)
# VH: QVQLQESGPGLVKPSETLSLTCTVSGGSISTYYWSWIRQPAGKGLEWIGRINTSGSTTYNPSLKSRVTMSVDTSKNQFSLKLSSVTAADTAVYYCARELERYYYYGMDVWGQGTTVTVSS
# VL: DIQMTQSPSSLSASVGDRVTITCQASQDISNYLNWYQQKPGKAPKLLIYYASILETGVPSRFSGSGSGTDFTFTISSLQPEDIATYYCQQYDSLPLTFGGGTKVEIK
# notes: as for B1
# B3: 75110_07E04A (antibody, V domains shown)
# VH: EVQLVESGGGLVQPGGSLRLSCAVSGFTFSSYDMHWVRQATGKGLEWVSTIGTAGDTYYPGSVKGRFTISRENAKKFLYLQMNSLRAGDTAVYYCARGGYYYYGMDVWGQGTTVTVSS
# VL: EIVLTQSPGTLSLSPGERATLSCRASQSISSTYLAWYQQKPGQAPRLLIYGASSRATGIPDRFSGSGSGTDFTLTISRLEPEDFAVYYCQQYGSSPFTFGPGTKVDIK
# notes: as for B1
# B4: 75110_13C07A (antibody, V domains shown)
# VH: EVQLVESGGVLVQPGGSLRLSCAASGFTFSNYDMHWVRQATGKGLEWVSTIGTAGDTYYPGSVKGRFTLSRENAKNSLYLQMHSLRAGDTAVYYCARGAYGYYGMDVWGQGTTVTVSS
# VL: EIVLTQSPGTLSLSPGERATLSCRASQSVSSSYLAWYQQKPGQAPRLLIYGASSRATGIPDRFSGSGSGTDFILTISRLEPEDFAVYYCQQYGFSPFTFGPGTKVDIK
# notes: as for B1
# B5: 75110_10N21A (antibody, V domains shown)
# VH: EVQLVESGGGLVQPGGSLRLSCAASGFTFSSYDMHWVRQVTGKGLEWVSTIGTAGDTYYPGSVKGRFTISRENAKNSLYLQMNSLRAGDTAVYYCARGGYYYYGMDVWGQGTTVTVSS
# VL: EIVLTQSPGTLSLSPGERATLSCRASQSFISSYLAWYQQKPGQAPRLLIYGASSRATGIPDRFSGSGSGTDFTLTISRLDPEDFAVYYCQQSGNSPFTFGPGTKVDVK
# notes: as for B1
# B6: 75110_07J02A (antibody, V domains shown)
# VH: EVQLVESGGGLVQPGGSLRLSCAASGFTFSSYWMSWVRQAPGKGLEWVANIKEDGSEKYYVDSVKGRFTISRDNAKNSLYLQMNSLRAEDTAVYYCARDGSYSGYGMDVWGQGTTVTVSS
# VL: AIQMTQSPSSLSASVGDRVTITCRASQGIRNDLGWYQQKPGKAPKLLIYAASSLQSGVPSRFSGRGSGTDFALTISSLQPEDFATYYCLLDYNYPYTFGQGTRLEIK
# notes: as for B1
# B7: 75110_07B16A (antibody, V domains shown)
# VH: QVQLQQWGAGLLKPSETLSLTCAVYGGSFSGYYWSWIRQSPGKGLEWIGEINQSGSTNYNPSLKSRVTISVDTSKDQFSLKLSSVTAADTAVYYCARVINWFDSWGQGSLVTVSS
# VL: DIQMTQSPSSVSASVGDRVTITCRASQGISSWLAWYQQKPGKAPKLLIYDASSFQSGVPSRFSGSGSGTDFTLTISSLQTDDFATYYCQQANSFPYTFGQGTKLEIK
# notes: as for B1
# B8: 75110_11D03A (antibody, V domains shown)
# VH: EVQLVESGGGLVQPGGSLRLSCAASGFTFSSYWMSWVRQAPGKGLEWVANINQDGNEKYYVDSVKGRFTISRDNAKNSLFLQMNSLRAEDTAVYYCAREGGQWLALDYWGQGALVTVSS
# VL: DIQMTQSPSSVSASVGDRVTITCRASQGISSWLAWYQQKPGKAPKFLISGASSLQSGVPSRFSGSGSGTDFTLTISSLQPEDFATYYCQQANSFPWTFGQGTKVEIK
# notes: as for B1
# B9: 75110_07H07A (antibody, V domains shown)
# VH: EVQVVESGGGLVQPGGSLRLSCAASGFTFSSYWMSWVRQAPGKGLEWVANIKEEGSEKYYVDSVKGRFTISRDNAKNSLYLQMNSLRAEDTAVYYCVREGGQWLALDYWGQGTLVTVSS
# VL: DIQMTQSPSSVSGSVGDRVTITCRASQGISSWLAWYQQKPGKAPKLLIFGASSLQSGVPSRFSGSGSGTDFTLTISSLQPEDFATYYCQQANSFPWTFGQGTKVQIK
# notes: as for B1
# B10: 75110_12C19A (antibody, V domains shown)
# VH: EVQLVESGGGLVQPGGSLRLSCAASGFTFSSYWMSWVRQAPGKGLEWVANIKEDGSDKYYVDSVKGRFTISRDNAKNSLYLQMNSLRAEDTAVHYCVREGGQWLALDYWGQGTLVTVSS
# VL: DIQMTQSPSSVSGSVGDRVTITCRASQGISSWLAWYQQKPGKAPKLLIYGASSLQSGVPSRFSGSGSGTDFTLTISSLQPEDFVTYYCQQANSFPWTFGQGTKVEIK
# notes: as for B1
# B11: 75110_09G15A (antibody, V domains shown)
# VH: EVQLVESGGGLVQPGGSLRLSCAASGFTFSDYWMSWVRQAPGKGLEWVANINQDGSEKYSVDSVKGRFTISRDNAKNSLYLQMNSLRAEDTAIFYCAREGGQWLALDYWGQGTLVTVSS
# VL: DIQMTQSPSSVSASVGDRVTITCRASQGISSWLAWYQQKPGKAPKLLIYGASSLQSGVPSRFSGSGSGTDFTLTINSLQPEDFTTYYCQQANIFPWTFGQGTKVEIK
# notes: as for B1
# B12: 75110_09N20A (antibody, V domains shown)
# VH: EVQLVESGGGLVQPGGSLRLSCAASGFTFSSYWMSWVRQAPGKGLEWVANINEDGSEKYYVDSVKGRFTISRDNAKNSLYLQMNSLRAEDTAVYYCVREGGQWLALDYWGQGTLVTVSS
# VL: DIQMTQSPSSVSASVGDRVTITCRASQGISSWLAWYQQKPGKAPKLLIYAASSLQSGVPSSFSGSGSGTDFTLTINSLQPEDFATYYCQQANSFPWTFGQGTKVAIK
# notes: as for B1
# B13: 75110_12H17A (antibody, V domains shown)
# VH: EVQLVESGGGLVQPGGSLRLSCAASGFTFSDYWMSWVRQAPGKGLEWVANIKEDGNEKYYVDSVKGRFTISRDNAKNSLFLQMNSLRAEDTAVYYCAREGGQWLALDYWGQGALVTVSS
# VL: DIQMTQSPSSVSASVGDRVTITCRASQGISSWLAWYQQKPGKAPKFLISGASSLQSGVPSRFTGSGSGTDFTLTISSLQPEDFATYYCQQANSFPWTFGQGTKVEIK
# notes: as for B1
# B14: 75110_12H19A (antibody, V domains shown)
# VH: EVQLVESGGGLVQPGGSLRLSCAASGFTFSSYWMSWVRQAPGQGLEWVANINEDGNEKYHVDSVKGRLTISRDNAKNSLYLQMNSLRGVDTAVYFCAREGGQWLALDYWGQGALVTVSS
# VL: DIQMTQSPSSVSASVGDRVSITCRASQGISSWLAWYQQKPGKAPKLLIYGASGLQSGVPSRFSGSGSGTDFTLTISSLQPEDFATYYCQQANSFPWTFGQGTKVEIK
# notes: as for B1
# Target: T1, Rhesus macaque CD4-HIS (Acro Biosystems, Cat. CD4-C52H7) (rhesus macaque, UniProt P16003 26-390)
# T1 construct: Bought reagent; also called Rhesus CD4; rhesus CD4-HIS; not shown: His tag
# Experiment: BLI (Octet Red384); Ab on anti-mouse Fc (AMC) sensor; rhesus CD4-HIS 100/50/25 nM; global 1:1 fit;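 further: antibodies loaded at 10 µg/mL, an unrelated mouse-derived antibody served as internal reference, curves fit over association and dissociation phases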
# Method: A three-point, 1:1 serial dilution of human and rhesus CD4 proteins were prepared using kinetics buffer as diluent. […] 10 mM Glycine pH 1.7, and kinetics buffer were used to regenerate the AMC biosensors. […] An irrelevant antibody derived from the Alivamab mouse was included in the assay as an internal reference control.
# After completion of the kinetic characterization assays, data was analyzed in Forte Bio analysis software v11. The Y-axis was aligned to the final 5 seconds of the baseline step, with inter-step alignment to the dissociation step. Savitzky-Golay Filtering was used to smooth the data. Kinetic curves were fit to both association and dissociation steps using a 1:1 stoichiometry model. A global fitting was calculated using the three-point analyte titration to derive a single set of kinetic constants for each antibody against human and rhesus CD4.
# T1 sequence (P16003 26-390 limits assumed): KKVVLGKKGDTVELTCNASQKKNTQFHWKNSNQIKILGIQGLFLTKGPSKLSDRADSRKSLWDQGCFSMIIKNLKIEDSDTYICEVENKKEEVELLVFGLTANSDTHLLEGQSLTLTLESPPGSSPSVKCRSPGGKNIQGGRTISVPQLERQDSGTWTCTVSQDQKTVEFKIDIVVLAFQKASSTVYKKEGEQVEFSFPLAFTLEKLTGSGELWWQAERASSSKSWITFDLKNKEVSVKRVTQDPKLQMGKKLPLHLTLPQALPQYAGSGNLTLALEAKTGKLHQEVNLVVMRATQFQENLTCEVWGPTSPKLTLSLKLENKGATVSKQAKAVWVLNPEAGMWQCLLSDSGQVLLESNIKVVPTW
Binder,Kd [nM],Response,koff [s⁻¹],kon [M⁻¹ s⁻¹]
B1,2.1,0.05,0.0011,510000
B2,7.8,0.13,0.00035,45000
B3,2.6,0.02,0.00042,160000
B4,3.9,0.05,0.00085,220000
B5,8.2,0.07,0.001,130000
B6,18,0.14,0.0028,150000
B7,13,0.17,0.0033,250000
B8,3.5,0.11,0.0018,530000
B9,32,0.15,0.003,94000
B10,16,0.1,0.0038,240000
B11,36,0.27,0.003,84000
B12,44,0.14,0.004,92000
B13,22,0.23,0.0032,150000
B14,14,0.28,0.0026,190000
